The assay addresses T1, human RNF130 (GOLIATH) extracellular domain (human, UniProt Q86XS8 28-194, biotin (BirA biotinylation)).
T1 construct: RNF130 (GOLIATH), human, extracellular domain (ECD); also called RNF130 ECD; source: Expi293F, purified (Ni-NTA, size-exclusion chromatography), biotinylated with BirA; not shown: AVI, C-terminal, kept
T1 sequence (looked up): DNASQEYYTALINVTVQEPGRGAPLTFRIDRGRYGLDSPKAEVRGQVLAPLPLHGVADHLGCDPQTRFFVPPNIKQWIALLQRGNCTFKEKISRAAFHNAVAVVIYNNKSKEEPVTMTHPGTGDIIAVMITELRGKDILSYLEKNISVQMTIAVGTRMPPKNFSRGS
As to the kind of experiment: SPR; Biacore T100; biotinylated ECD (ligand) captured on a streptavidin (SA) series S chip, ~100-200 RU; non-biotinylated VHH as analyte in HBS-P+ buffer, twofold dilutions from 500 nM (RNF128 E2, RNF130 D1) or 1000 nM (RNF43 C8); injection 60 s at 30 ul/min, dissociation 240 s; regeneration 1 x 10 sec glycine pH 2.5; 1:1 Langmuir model or equilibrium. The note with it: both partners purified.

One molecule from paper PMC10127277, “Receptor Elimination by E3 Ubiquitin Ligase Recruitment (REULR): A Targeted Protein Degradation Toolbox” (ACS Synthetic Biology, 2023) can be followed below.

B1: RNF130-D1 nanobody (VHH)
VHH: QVQLQESGGGLVQAGGSLRLSCAASGTISFIGYMGWYRQAPGKERELVASIASGTSTYYADSVKGRFTISRDNAKNTVYLQMNSLKPEDTAVYYCAATQYIQDVHRYWGQGTQVTVSS
notes: VHH selected from a synthetic yeast-display nanobody library against the human RNF130 ECD; Non-biotinylated analyte in SPR; source: Expi293F, purified (Ni-NTA, size-exclusion chromatography)
On to B1, for which the Kd is 6.4 nM.

As a reminder, the Kd is the constant that tells how readily two partners part at equilibrium.
